For orientation: Kd means the constant that tells how readily two partners part at equilibrium. Higher therefore signals weaker binding.

Consider three molecules from patent US20110143963A1 (UNIVERSITY OF CHICAGO, published 2011).

Where no end group is shown, it is not given here.

For assay [1], the target named is T1, ARVCF peptide PQPVDSWV-COOH (eight-residue motif corresponding to the ARVCF C-terminus) (not fully specified; printed as PQPVDSWV-COOH).
T1 construct: also called ARVCF target peptide; AVFCF peptide
T1 peptide: PQPVDSWV-OH
Description: SPR, ratio of Kd.

The target of assay [2] is T1, ARVCF peptide PQPVDSWV-COOH …. Description: SPR (BIAcore). (In general: Surface plasmon resonance follows binding to a sensor surface in real time, without labels.)
For assay [3] the target is unchanged. Description: SPR (error 13500 stands in r16c7).
The target of assay [4] is T2, target motif GGRSWFETWV-COOH.
T2 construct: also called target peptide
T2 peptide: GGRSWFETWV-OH
Description: phage display format and SPR. How it is done: From visual inspection of the erbin PDZ structure and a sequence alignment of PDZ domains, three potential sites were identified for the new termini in a circularly permutated PDZ domain. Three mutant PDZ domains, in which four Gly residues were inserted in one of the three candidate sites, were assayed for binding to the target motif using the phage display format.

Assay [5] concerns the target T3, SUMO-ARVCF fusion protein (yeast).
T3 construct: also called target peptide fused to the yeast SUMO protein; the target
In words: SPR, ratio of Kd.

In assay [6] the target is T3, SUMO-ARVCF fusion protein. In words: SPR, equilibrium mode, target peptide fused to yeast SUMO.

B1: fusion protein of cpPDZ and FN3 (starting material) (designed binder)
chain: PELGFSISGGVGGRGNPFRPDDDGIFVTRVQPEGPASKLLQPGDKIIQANGYSFINIEHGQAVSLLKTFQNTVELIIVREVGNGAKQEIRVRVEKDGGSGGVSSVPTNLEVVAATPTSLLISWDASSSSVSYYRITYGETGGNSPVQEFTVPGSKSTATISGLKPGVDYTITVYASSSSSSSSSSPISINYRT
As to B1, the “Affinity Enhancement (Kd of cpPDZFN for ARVCF / Kd of the clamp)” value in assay [1] was 1 fold. Moreover, the equilibrium dissociation constant (Kd) in assay [2] is 25 µM; in assay [3], 24.8 µM.

B2: circularly permutated PDZ domain (designed binder)
chain: PELGFSISGGVGGRGNPFRPDDDGIFVTRVQPEGPASKLLQPGDKIIQANGYSFINIEHGQAVSLLKTFQNTVELIIVREVGNGAKQEIRVRVEKD
notes: The order would be PDZ residues 21 to C-terminus, Asn-Gly, then residues 1-20; also called cpPDZ
On to B2, for which, in assay [4], the binding result was “binds”.

B3: peptide-PDZ affinity clamp, clone 282-6 (designed binder)
chain: GSNFCASNGTGNDCRRPELGFSISGGVGGRGNPFRPDDDGIFVTRVQPEGPASKLLQPGDKIIQANGYSFINIEHGQAVSLLKTFQNTVELIIVREVGNGAKQEIRVRVEKDGG
modifications: disulfide-constrained (Cys-constrained) peptide segment
Consider B3, for which the “fold higher affinity than the parent interaction domain (cpPDZ)” value in assay [5] worked out at 12 fold. Also, the affinity in assay [6], expressed as Kd, was 0.91 µM.
